The values that follow come from patent publication US20240158475A1.

To fix the notation:
B1: Mutation 1-23 (antibody, V domains shown)
VH: EVQLQQSGTELVRPGALVKLSCKASGFNIKDYYLHWVKQRPRQGLEWIGWIDPENGKTIYDPKFQDKASITSDTSTNTAYLQLRSLTSEDTAVYYCVTAYFRFVYWGQGTLVTVSA
VL: QIVLTQSPAIMSAFPGERVTMTCSASSSVRYMYWHQQKPGSSPRLLIYDTSNVASGVPVRFSGSGSGTSYSLTISRDEAMDAATYYCQQWSSTPRTFGGGTKLEIKR
B2: Mutation 1-24 (antibody, V domains shown)
VH: EVQLQQSGTELVRPGALVKLSCKASGFNIKDYYVHWVKQRPRQGLEWIGWIDPENGKTLYDPKFQDKASITSDTSTNTAYLQLRSLTSEDTAVYYCVTAYVRFVYWGQGTLVTVSA
VL: QIVLTQSPAIMSAFPGERVTMTCSASTSVRYMYWHQQKPGSSPRLLIYDTSNIASGVPVRFSGSGSGTSYSLTISRDEAMDAATYYCQQWSSYPRTFGGGTKLEIKR
B3: Mutation 1-29 (antibody, V domains shown)
VH: EVQLQQSGTELVRPGALVKLSCKASGFNIKDYYLHWVKQRPRQGLEWIGWIDPENGKTIYDPKFQDKASITSDTSTNTAYLQLRSLTSEDTAVYYCVSAYYRFVYWGQGTLVTVSA
VL: QIVLTQSPAIMSAFPGERVTMTCSASTSVRYMYWHQQKPGSSPRLLIYDTSNVASGVPVRFSGSGSGTSYSLTISRDEAMDAATYYCQQWSSYPRTFGGGTKLEIKR
B4: Mutation 1-28 (antibody, V domains shown)
VH: EVQLQQSGTELVRPGALVKLSCKASGFNIKDYYIHWVKQRPRQGLEWIGWIDPENGKTLYDPKFQDKASITSDTSTNTAYLQLRSLTSEDTAVYYCVSAYFRFVYWGQGTLVTVSA
VL: QIVLTQSPAIMSAFPGERVTMTCSASTSVRYMYWHQQKPGSSPRLLIYDTSNLASGVPVRFSGSGSGTSYSLTISRDEAMDAATYYCQQWSSYPRTFGGGTKLEIKR
B5: Mutation 1-27 (antibody, V domains shown)
VH: EVQLQQSGTELVRPGALVKLSCKASGFNIKDYYVHWVKQRPRQGLEWIGWIDPENGKTIYDPKFQDKASITSDTSTNTAYLQLRSLTSEDTAVYYCVSAYVRFVYWGQGTLVTVSA
VL: QIVLTQSPAIMSAFPGERVTMTCSASSSVRYMYWHQQKPGSSPRLLIYDTSNLASGVPVRFSGSGSGTSYSLTISRDEAMDAATYYCQQWSSTPRTFGGGTKLEIKR
B6: Mutation 1-25 (antibody, V domains shown)
VH: EVQLQQSGTELVRPGALVKLSCKASGFNIKDYYIHWVKQRPRQGLEWIGWIDPENGKTIYDPKFQDKASITSDTSTNTAYLQLRSLTSEDTAVYYCVTAYFRFVYWGQGTLVTVSA
VL: QIVLTQSPAIMSAFPGERVTMTCSASSSVRYMYWHQQKPGSSPRLLIYDTSNLASGVPVRFSGSGSGTSYSLTISRDEAMDAATYYCQQWSSTPRTFGGGTKLEIKR
B7: Mutation 1-26 (antibody, V domains shown)
VH: EVQLQQSGTELVRPGALVKLSCKASGFNIKDYYLHWVKQRPRQGLEWIGWIDPENGKTLYDPKFQDKASITSDTSTNTAYLQLRSLTSEDTAVYYCVTAYYRFVYWGQGTLVTVSA
VL: QIVLTQSPAIMSAFPGERVTMTCSASSSVRYMYWHQQKPGSSPRLLIYDTSNVASGVPVRFSGSGSGTSYSLTISRDEAMDAATYYCQQWSSYPRTFGGGTKLEIKR

The assay concerns the target DN-III quality control recombinant protein (produced by Fapon Biotech InC.) (dengue virus). Description: BLI, AMC sensor, antibody captured. In general terms: BLI is a label-free optical method that tracks binding on a fibre tip over time.
A word on the Kd: it is the equilibrium constant for the complex coming apart. As a reminder, the koff is the first-order rate constant of dissociation. Usually kon stands for the second-order rate constant of association. For the molecule B1, the Kd came out at 460 pM, the koff was determined as 3.86e-05 s⁻¹ and the kon worked out at 44600 M⁻¹ s⁻¹.

For B2, the Kd amounted to 530 pM, the koff stood at 1.74e-05 s⁻¹ and the kon worked out at 37700 M⁻¹ s⁻¹.

Regarding B3, the Kd is 900 pM, the koff came to 3.23e-05 s⁻¹ and the on-rate constant (kon) was 35700 M⁻¹ s⁻¹.

On to B4, for which the Kd came to 780 pM, the koff turned out to be 2.89e-05 s⁻¹ and the kon was 37000 M⁻¹ s⁻¹.

As for B5, the Kd turned out to be 121 pM, the koff worked out at 3.66e-05 s⁻¹ and the kon came to 303000 M⁻¹ s⁻¹.

For the molecule B6, the Kd came out at 1090 pM, the koff is 1.78e-05 s⁻¹ and the association rate constant (kon) came out at 33900 M⁻¹ s⁻¹.

Consider B7, for which the Kd was determined as 111 pM, the off-rate (koff) amounted to 3.47e-05 s⁻¹ and the kon worked out at 312000 M⁻¹ s⁻¹.
